Experimental data taken from US20220267410A1 (UNIVERSITAT STUTTGART, published 2022).
Residue numbers refer to the chain shown, from its start.

T1: TNFR2 on Kym-1 cells (UniProt P20333 23-461, limits assumed)
T1 sequence (looked up): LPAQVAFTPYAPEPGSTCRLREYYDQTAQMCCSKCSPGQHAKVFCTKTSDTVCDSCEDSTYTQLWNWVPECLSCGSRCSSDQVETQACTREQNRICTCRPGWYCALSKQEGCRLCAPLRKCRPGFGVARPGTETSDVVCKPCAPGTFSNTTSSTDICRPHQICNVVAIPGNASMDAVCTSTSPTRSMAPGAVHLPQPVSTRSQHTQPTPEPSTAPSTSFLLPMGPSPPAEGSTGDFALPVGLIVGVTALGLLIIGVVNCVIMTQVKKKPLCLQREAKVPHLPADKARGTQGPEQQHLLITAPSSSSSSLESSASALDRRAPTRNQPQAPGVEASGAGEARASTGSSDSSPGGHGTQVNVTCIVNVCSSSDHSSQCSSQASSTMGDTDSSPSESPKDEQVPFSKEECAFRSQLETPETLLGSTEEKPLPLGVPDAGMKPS

T2: human TNFR2-Fc (etanercept) (human, UniProt P20333 23-257)
T2 construct: Commercial drug coated on ELISA plates (200 ng/well); also called immobilized TNF-R2; not shown: Fc part of etanercept
T2 sequence (looked up): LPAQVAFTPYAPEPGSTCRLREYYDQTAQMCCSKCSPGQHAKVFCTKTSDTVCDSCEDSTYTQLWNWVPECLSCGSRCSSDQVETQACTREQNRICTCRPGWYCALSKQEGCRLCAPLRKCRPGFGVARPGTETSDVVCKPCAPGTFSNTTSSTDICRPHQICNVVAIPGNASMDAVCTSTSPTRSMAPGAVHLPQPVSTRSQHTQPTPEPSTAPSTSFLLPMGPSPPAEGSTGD

B1: 6xHis-scTNFR2 143 (ligand)
chain: MCGSHHHHHHSGIPASDKPVAHVVANPQAEGQLQWLNRRANALLANGVELRDNQLVVPSEGLYLIYSQVLFKGQGCPSTHVLLTHTISRIAVSYQTKVNLLSAIKSPCQRETPEGAEAKPWYEPIYLGGVFQLEKGDRLSAEINRPDYLNFRESGQVYFGIIALGGGPSDKPVAHVVANPQAEGQLQWLNRRANALLANGVELRDNQLVVPSEGLYLIYSQVLFKGQGCPSTHVLLTHTISRIAVSYQTKVNLLSAIKSPCQRETPEGAEAKPWYEPIYLGGVFQLEKGDRLSAEINRPDYLNFRESGQVYFGIIALGGGPSDKPVAHVVANPQAEGQLQWLNRRANALLANGVELRDNQLVVPSEGLYLIYSQVLFKGQGCPSTHVLLTHTISRIAVSYQTKVNLLSAIKSPCQRETPEGAEAKPWYEPIYLGGVFQLEKGDRLSAEINRPDYLNFRESGQVYFGIIAL
notes: Expressed with Igκ leader and N-terminal 6xHis tag; also called variant 143
B2: 6xHis-scTNFR2 146 (ligand)
chain: MCGSHHHHHHSGIPASDKPVAHVVANPQAEGQLQWLNRRANALLANGVELRDNQLVVPSEGLYLIYSQVLFKGQGCPSTHVLLTHTISRIAVSYQTKVNLLSAIKSPCQRETPEGAEAKPWYEPIYLGGVFQLEKGDRLSAEINRPDYLNFRESGQVYFGIIALGGGTPSDKPVAHVVANPQAEGQLQWLNRRANALLANGVELRDNQLVVPSEGLYLIYSQVLFKGQGCPSTHVLLTHTISRIAVSYQTKVNLLSAIKSPCQRETPEGAEAKPWYEPIYLGGVFQLEKGDRLSAEINRPDYLNFRESGQVYFGIIALGGGTPSDKPVAHVVANPQAEGQLQWLNRRANALLANGVELRDNQLVVPSEGLYLIYSQVLFKGQGCPSTHVLLTHTISRIAVSYQTKVNLLSAIKSPCQRETPEGAEAKPWYEPIYLGGVFQLEKGDRLSAEINRPDYLNFRESGQVYFGIIAL
notes: Expressed with Igκ leader and N-terminal 6xHis tag; also called variant 146
B3: 6xHis-scTNFR2 147 (ligand)
chain: B2 chain with T168G, T322G
notes: Expressed with Igκ leader and N-terminal 6xHis tag; also called variant 147

These binders were tested against T1, TNFR2 on Kym-1 cells (assay: cell-based or functional assay).

Row | Binder | EC50 of bioactivity on Kym-1 with 80M2 (cell death, crystal violet) [nM]
1 | B1 | 0.0119
2 | B2 | 0.00655
3 | B3 | 0.00858

Each binder was assayed against T2, human TNFR2-Fc (etanercept) (assay: ELISA on coated etanercept).
Protocol: The binding of scTNFR2 and the scTNFR2-Fc(Δab) proteins to human TNFR2-Fc (etanercept) was analyzed by ELISA. 96-well ELISA plates were coated with 200 ng/well etanercept in coating buffer (0.1 M sodium carbonate, pH 9.5) overnight at 4° C., blocked with 2% skim milk in PBS (MPBS) and washed with washing buffer PBST (PBS, 0.05 Tween 20). ScTNFR2 and scTNFR2-Fc(Δab) proteins were titrated in duplicates and incubated on the plates for 2 h at room temperature, followed by washing with PBST. Receptor-bound complexes were detected with mouse anti-huTNFα F6C5 (Novus, 1 μg/ml) and goat anti-mouse IgG(Fc)-HRP (Sigma-Aldrich, 1:10,000), followed by extensive washing with PBST each, before incubation with HRP substrate.

Row | Binder | EC50 [nM]
4 | B1 | 0.67
5 | B2 | 0.71
6 | B3 | 0.76
